Source: patent publication US20240261333A1, “NOVEL TARGETS FOR ENHANCING ANTI-TUMOR IMMUNITY” (THE BROAD INSTITUTE, INC., priority 2021, published 2024)

Assays:
ATXN2 (human) = ATXN2 (human) (UniProt Q99700); assay: co-IP, IgG control, lysate of cells with N-FLAG B3GNT2; mass spectrometry
CAT (human) = CAT (human) (UniProt P04040); assay: as above
DNAJC3 (human) = DNAJC3 (human) (UniProt Q13217); assay: as above
EIF5B (human) = EIF5B (human) (UniProt O60841); assay: as above
G3BP1 (human) = G3BP1 (human) (UniProt Q13283); assay: as above
GGCT (human) = GGCT (human) (UniProt O75223); assay: as above
Chain of GGCT (human) (O75223 whole entry): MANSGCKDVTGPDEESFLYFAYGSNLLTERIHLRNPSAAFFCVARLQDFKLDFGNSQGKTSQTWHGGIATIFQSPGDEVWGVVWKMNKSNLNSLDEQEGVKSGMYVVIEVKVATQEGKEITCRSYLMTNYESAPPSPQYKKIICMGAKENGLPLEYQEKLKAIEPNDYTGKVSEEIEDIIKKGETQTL

HADHB (human) = HADHB (human) (UniProt P55084); assay: as above
Chain of HADHB (human) (P55084 34-474 limits assumed): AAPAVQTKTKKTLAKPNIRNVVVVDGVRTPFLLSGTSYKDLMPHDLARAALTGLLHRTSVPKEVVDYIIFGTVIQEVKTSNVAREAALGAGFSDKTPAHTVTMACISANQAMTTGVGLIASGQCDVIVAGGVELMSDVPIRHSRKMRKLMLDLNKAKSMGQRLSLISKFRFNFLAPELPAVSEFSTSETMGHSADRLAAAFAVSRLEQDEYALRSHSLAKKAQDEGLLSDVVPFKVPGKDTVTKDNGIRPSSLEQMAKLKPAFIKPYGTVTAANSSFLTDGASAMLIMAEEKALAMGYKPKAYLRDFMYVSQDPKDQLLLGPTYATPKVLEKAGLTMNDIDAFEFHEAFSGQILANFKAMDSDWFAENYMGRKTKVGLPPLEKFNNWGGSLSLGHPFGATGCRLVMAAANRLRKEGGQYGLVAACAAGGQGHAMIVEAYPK

HNRNPK (human) = HNRNPK (human) (UniProt P61978); assay: as above
KRT4 (human) = KRT4 (human) (UniProt P19013); assay: as above
Chain of KRT4 (human) (P19013 whole entry): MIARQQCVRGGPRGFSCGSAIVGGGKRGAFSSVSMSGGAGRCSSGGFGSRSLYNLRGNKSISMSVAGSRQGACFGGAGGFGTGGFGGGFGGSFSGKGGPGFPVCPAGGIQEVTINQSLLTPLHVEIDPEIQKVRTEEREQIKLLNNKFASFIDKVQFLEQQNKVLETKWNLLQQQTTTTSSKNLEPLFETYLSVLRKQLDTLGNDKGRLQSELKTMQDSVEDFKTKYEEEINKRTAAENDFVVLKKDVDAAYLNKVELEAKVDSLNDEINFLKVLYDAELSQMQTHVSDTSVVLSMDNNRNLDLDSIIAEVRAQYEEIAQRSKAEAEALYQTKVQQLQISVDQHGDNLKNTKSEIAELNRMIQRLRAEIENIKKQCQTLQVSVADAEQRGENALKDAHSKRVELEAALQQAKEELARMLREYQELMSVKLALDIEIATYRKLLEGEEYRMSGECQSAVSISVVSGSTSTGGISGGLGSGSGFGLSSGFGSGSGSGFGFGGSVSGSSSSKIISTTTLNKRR

KRT6B (human) = KRT6B (human) (UniProt P04259); assay: as above
LMNA (human) = LMNA (human) (UniProt P02545); assay: as above
Chain of LMNA (human) (P02545 1-646 limits assumed): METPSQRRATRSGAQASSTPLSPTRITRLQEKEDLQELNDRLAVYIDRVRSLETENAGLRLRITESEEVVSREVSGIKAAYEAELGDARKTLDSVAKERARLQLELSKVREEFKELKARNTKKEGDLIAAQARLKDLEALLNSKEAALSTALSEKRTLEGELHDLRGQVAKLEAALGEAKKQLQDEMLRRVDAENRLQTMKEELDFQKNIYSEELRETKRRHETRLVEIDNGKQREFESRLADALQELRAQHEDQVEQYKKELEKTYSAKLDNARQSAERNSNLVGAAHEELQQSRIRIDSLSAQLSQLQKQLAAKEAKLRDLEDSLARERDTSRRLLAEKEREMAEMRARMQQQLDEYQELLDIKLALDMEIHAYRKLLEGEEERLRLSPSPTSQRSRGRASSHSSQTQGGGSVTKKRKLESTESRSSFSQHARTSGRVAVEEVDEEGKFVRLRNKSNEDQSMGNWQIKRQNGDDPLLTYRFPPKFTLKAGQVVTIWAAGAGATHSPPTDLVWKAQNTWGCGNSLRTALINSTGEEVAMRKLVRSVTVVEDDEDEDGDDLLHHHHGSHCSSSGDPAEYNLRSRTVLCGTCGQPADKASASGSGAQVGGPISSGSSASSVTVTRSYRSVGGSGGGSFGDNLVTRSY

LSM12 (human) = LSM12 (human) (UniProt Q3MHD2); assay: as above
Chain of LSM12 (human) (Q3MHD2 2-195 limits assumed): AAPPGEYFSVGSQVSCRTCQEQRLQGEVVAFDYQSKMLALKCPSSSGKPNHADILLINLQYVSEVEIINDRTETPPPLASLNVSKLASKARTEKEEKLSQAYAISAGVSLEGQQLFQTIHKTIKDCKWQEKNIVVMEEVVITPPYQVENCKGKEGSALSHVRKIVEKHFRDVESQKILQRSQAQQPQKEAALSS

MYH11 (human) = MYH11 (human) (UniProt P35749); assay: as above
Chain of MYH11 (human) (P35749 other isoform, or with tags, fused parts or gaps limits assumed): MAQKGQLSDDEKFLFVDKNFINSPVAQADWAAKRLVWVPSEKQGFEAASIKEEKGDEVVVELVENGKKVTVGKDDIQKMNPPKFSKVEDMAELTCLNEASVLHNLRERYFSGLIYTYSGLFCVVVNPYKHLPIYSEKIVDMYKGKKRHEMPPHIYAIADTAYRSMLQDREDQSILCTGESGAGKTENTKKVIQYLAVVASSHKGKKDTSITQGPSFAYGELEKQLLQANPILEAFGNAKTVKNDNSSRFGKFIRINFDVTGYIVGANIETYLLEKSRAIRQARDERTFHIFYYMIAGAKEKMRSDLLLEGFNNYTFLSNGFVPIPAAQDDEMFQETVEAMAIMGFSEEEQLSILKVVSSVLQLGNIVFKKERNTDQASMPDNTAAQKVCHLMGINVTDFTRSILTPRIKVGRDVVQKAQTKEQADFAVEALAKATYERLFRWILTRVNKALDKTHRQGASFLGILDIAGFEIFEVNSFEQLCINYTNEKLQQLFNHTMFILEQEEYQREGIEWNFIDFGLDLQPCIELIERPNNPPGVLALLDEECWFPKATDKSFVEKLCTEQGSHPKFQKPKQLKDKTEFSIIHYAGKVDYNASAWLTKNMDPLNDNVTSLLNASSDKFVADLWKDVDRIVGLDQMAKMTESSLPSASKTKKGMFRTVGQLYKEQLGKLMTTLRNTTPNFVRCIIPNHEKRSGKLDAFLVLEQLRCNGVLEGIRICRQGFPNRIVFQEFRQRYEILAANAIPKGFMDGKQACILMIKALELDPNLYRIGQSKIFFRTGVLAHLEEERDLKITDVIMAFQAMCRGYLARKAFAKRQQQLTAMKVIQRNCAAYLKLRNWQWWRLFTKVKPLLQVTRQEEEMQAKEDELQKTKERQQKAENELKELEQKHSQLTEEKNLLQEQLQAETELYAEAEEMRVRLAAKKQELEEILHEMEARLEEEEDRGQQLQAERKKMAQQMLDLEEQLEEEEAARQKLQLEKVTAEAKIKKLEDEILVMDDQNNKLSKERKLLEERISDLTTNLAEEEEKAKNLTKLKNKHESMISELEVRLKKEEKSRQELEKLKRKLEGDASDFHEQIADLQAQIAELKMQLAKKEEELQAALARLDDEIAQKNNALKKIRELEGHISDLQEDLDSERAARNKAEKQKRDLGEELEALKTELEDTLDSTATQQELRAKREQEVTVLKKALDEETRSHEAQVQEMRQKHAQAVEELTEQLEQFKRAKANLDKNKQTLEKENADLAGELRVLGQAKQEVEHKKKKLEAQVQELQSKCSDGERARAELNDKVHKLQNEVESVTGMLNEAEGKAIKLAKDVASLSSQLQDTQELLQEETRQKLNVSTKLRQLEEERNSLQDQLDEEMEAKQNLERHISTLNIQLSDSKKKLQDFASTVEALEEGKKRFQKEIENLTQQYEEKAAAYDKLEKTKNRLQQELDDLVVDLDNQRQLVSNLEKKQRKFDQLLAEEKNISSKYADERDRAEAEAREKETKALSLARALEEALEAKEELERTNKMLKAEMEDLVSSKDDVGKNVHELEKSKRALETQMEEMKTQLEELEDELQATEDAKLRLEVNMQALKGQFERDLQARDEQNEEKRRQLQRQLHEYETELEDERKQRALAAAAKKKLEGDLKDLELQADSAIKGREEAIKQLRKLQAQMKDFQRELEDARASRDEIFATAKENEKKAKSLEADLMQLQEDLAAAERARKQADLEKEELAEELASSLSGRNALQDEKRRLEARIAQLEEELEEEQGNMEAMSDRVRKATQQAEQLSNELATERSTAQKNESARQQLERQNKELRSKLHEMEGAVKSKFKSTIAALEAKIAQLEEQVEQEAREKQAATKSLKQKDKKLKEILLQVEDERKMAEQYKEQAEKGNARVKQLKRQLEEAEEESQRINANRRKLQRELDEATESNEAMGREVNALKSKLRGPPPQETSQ

PARP1 (human) = PARP1 (human) (UniProt P09874); assay: as above
PRBP1 (human) = PRBP1 (human) (UniProt P26599); assay: as above
PRRC2A (human) = PRRC2A (human) (UniProt P48634); assay: as above
PUM1 (human) = PUM1 (human) (UniProt Q14671); assay: as above
RPL10 (human) = RPL10 (human) (UniProt P27635); assay: as above
RPL13 (human) = RPL13 (human) (UniProt P26373); assay: as above
RPL18 (human) = RPL18 (human) (UniProt Q07020); assay: as above
RPL4 (human) = RPL4 (human) (UniProt P36578); assay: as above
RPS28 (human) = RPS28 (human) (UniProt P62857); assay: as above
RPS3 (human) = RPS3 (human) (UniProt P23396); assay: as above
SERBP1 (human) = biological target: T1, SERBP1 (human) (UniProt Q8NC51); assay: as above
T1 sequence (looked up): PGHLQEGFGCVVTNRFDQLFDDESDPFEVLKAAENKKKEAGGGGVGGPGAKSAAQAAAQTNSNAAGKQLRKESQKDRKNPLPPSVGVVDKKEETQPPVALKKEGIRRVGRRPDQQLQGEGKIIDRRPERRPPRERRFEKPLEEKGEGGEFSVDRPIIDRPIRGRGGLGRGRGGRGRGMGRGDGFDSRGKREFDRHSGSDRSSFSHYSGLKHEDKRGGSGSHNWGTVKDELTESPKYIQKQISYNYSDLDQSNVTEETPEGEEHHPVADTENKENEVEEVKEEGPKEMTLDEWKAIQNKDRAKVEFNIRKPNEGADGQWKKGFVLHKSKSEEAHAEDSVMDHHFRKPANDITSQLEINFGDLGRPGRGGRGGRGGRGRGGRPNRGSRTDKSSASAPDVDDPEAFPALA

HNRNPM (human) = HNRNPM (human) (UniProt P52272); assay: control IP with IgG, lysate of cells with N-FLAG B3GNT2, mass spectrometry
YTHDF2 (human) = biological target: T2, YTHDF2 (human) (UniProt Q9Y5A9); assay: as above
T2 sequence (looked up): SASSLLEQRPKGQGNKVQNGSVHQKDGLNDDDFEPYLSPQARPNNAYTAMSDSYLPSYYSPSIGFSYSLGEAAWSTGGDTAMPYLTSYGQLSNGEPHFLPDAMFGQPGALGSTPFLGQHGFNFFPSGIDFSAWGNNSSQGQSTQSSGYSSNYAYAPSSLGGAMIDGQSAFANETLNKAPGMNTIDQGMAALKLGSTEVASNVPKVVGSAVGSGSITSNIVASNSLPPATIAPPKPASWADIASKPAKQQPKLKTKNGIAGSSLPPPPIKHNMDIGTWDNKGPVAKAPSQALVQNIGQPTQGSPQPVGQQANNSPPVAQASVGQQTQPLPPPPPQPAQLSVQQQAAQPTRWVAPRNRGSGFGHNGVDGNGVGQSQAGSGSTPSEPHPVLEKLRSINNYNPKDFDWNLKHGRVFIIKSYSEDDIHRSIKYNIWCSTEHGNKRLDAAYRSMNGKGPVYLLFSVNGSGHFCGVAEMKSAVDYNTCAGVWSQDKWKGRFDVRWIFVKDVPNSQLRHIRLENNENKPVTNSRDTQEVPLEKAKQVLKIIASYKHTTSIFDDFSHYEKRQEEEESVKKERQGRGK

Chain of CAT (human) (P04040 2-527 limits assumed): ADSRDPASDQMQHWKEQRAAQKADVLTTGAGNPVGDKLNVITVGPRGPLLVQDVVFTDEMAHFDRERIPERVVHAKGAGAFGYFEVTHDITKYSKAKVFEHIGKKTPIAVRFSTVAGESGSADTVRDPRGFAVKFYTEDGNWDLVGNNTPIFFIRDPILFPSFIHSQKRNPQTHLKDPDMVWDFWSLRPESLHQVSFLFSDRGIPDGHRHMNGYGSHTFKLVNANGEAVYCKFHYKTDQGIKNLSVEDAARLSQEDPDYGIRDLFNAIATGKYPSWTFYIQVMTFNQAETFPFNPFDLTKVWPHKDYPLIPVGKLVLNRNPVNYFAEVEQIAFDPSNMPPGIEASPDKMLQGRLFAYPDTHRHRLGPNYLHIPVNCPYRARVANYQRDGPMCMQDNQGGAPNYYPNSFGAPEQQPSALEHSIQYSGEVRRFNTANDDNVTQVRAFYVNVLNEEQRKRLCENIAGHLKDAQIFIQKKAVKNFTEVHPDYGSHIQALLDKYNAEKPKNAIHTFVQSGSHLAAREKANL
Chain of DNAJC3 (human) (Q13217 32-504 limits assumed): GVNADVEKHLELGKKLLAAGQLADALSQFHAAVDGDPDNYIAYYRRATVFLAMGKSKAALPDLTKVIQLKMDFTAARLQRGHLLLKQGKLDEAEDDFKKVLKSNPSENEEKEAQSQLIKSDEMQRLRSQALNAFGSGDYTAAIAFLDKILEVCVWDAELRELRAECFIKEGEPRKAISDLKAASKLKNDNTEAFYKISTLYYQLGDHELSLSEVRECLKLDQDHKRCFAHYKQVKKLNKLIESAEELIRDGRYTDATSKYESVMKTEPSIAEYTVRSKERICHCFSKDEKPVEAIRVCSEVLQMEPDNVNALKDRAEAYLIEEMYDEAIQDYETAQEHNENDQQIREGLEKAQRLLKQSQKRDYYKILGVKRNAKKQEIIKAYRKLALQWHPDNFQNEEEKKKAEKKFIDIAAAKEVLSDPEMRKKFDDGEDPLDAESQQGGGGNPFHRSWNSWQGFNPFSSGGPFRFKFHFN

IgG control (Millipore Sigma 12-371) (antibody)
co-IP mass spectrometry count (ATXN2 (human)): 3
co-IP mass spectrometry count (CAT (human)): 2
co-IP mass spectrometry count (DNAJC3 (human)): 0
co-IP mass spectrometry count (EIF5B (human)): 0
co-IP mass spectrometry count (G3BP1 (human)): 29
co-IP mass spectrometry count (GGCT (human)): 0
co-IP mass spectrometry count (HADHB (human)): 0
co-IP mass spectrometry count (HNRNPK (human)): 8
co-IP mass spectrometry count (KRT4 (human)): 21
co-IP mass spectrometry count (KRT6B (human)): 316
co-IP mass spectrometry count (LMNA (human)): 11
co-IP mass spectrometry count (LSM12 (human)): 2
co-IP mass spectrometry count (MYH11 (human)): 3
co-IP mass spectrometry count (PARP1 (human)): 0
co-IP mass spectrometry count (PRBP1 (human)): 7
co-IP mass spectrometry count (PRRC2A (human)): 3
co-IP mass spectrometry count (PUM1 (human)): 0
co-IP mass spectrometry count (RPL10 (human)): 3
co-IP mass spectrometry count (RPL13 (human)): 6
co-IP mass spectrometry count (RPL18 (human)): 5
co-IP mass spectrometry count (RPL4 (human)): 11
co-IP mass spectrometry count (RPS28 (human)): 0
co-IP mass spectrometry count (RPS3 (human)): 13
co-IP mass spectrometry count (SERBP1 (human)): 4
co-IP mass spectrometry count (HNRNPM (human)): 5
co-IP mass spectrometry count (YTHDF2 (human)): 4
